Measurements: patent EP0696198B1

What was measured:
[1] = target: Factor Xa; test: cell-based or functional assay
[2] = target: Factor Xa; test: modified prothrombinase complex assay (50 pM FXa, 1.35 µM prothrombin)
[3] = target: Factor Xa; test: reconstituted prothrombinase complex assay (250 pM FXa, 2.67 µM prothrombin), thrombin generation

Q: How did the IC50, prothrombinase complex assay (thrombin generation) [1] turn out when “naturally occurring FXa inhibitor isolated from dilute leech saliva (DLS) of Hirudo medicinalis” was run?
A: 0.19 nM

Q: What about the Ki [2] of the same substance?
A: 0.12 nM

Q: What about the Ki [3] of the same substance?
A: 0.072 nM
